Measured values reported in paper PMC3078936, “Directed Evolution Reveals the Binding Motif Preference of the LC8/DYNLL Hub Protein and Predicts Large Numbers of Novel Binders in the Human Proteome” (PLoS ONE, 2011).
Ends that are not written are not given here.

B1: Ac-SRGTQTE (peptide)
peptide: Ac-SRGTQTE
notes: phage-selected consensus without position -5; also called Ac-5 version of the in vitro evolved consensus; source: synthetic peptide
B2: EML3 (8-94), recombinant fragment (domain or fragment, human, UniProt Q32P44 8-94, looked up)
chain: GDGPAREALQSLSQRLRVQEQEMELVKAALAEALRLLRLQVPPSSLQGSGTPAPPGDSLAAPPGLPPTCTPSLVSRGTQTETEVELK
notes: also called EMAP-3; source: recombinant
B3: Ac-DKSTQTD, naturally evolved consensus peptide (peptide)
peptide: Ac-DKSTQTD
notes: also called natural consensus; Ac-5 version of the natural consensus; source: synthetic peptide
B4: dimeric-… (Leu-zipper dimerized … peptide) (peptide)
chain: not shown
notes: first two residues (Gly-7, Ser-6) come from the recombinant construct; leucine zipper of yeast GCN4, residues 250-281; PDB 3P8M holds the construct; not shown: GST, N-terminal, cleaved
B5: Ac-GSRGTQTE (peptide)
peptide: Ac-GSRGTQTE
notes: phage-selected consensus with Gly at position -5; also called Gly-5 version of the in vitro evolved consensus; source: synthetic peptide
B6: Ac-VSRGTQTE, in vitro evolved consensus peptide (peptide)
peptide: Ac-VSRGTQTE
notes: also called phage selected consensus; source: synthetic peptide
B7: Ac-GDKSTQTD (peptide)
peptide: Ac-GDKSTQTD
notes: natural consensus extended by Gly at position -5; also called Gly-5 version of the natural consensus; source: synthetic peptide
B8: Ac-VDKSTQTD (peptide)
peptide: Ac-VDKSTQTD
notes: natural consensus extended by Val at position -5; also called Val-5 version of the natural consensus; source: synthetic peptide

Key:
[1] = target: T1, LC8 dynein light chain DYNLL1 (residues 1-89) (human (from the printed UniProt …, UniProt P63167 1-89)); experiment: ITC; 15 µM DYNLL1 in the cell, 30-40 injections of 3-5 µl peptide; PBS with 3 mM 2-mercaptoethanol, pH 7.4; 299 K; A + B to AB model; settings: both partners purified
T1 construct: DYNLL1, residues 1-89, UniProt P63167, cloned into pET-15b; The methods name thrombin removal of the His tag only for DYNLL2; also called DYNNL1; source: E. coli BL21(DE3)Star, purified (Ni IMAC, HiTrapQ anion exchange)

[2] = target: T1, LC8 dynein light chain DYNLL1 (residues …); experiment: as above; settings: both partners purified; remark: listed apart in the source
[3] = target: the molecule itself; experiment: crystal structure; DYNLL2 (1.2 mM dimer) with 1.3 mM dimerized-VSRGTQTE; hanging drop, 293 K, 20% PEG8000, 0.2 M MgCl2, 0.1 M TRIS pH 7.0

T1 sequence (P63167 whole entry, the tested form may be a part): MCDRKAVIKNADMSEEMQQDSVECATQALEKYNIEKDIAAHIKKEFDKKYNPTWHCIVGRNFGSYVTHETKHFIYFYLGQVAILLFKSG

Binder | stoichiometry N [1] | Kd [2] [µM] | dH [2] [kJ/mol] | binding result [3]
B1 | 1 | 15.2 | -48.6 | 
B2 |  | 0.05 | -32.4 | 
B3 | 1 | 5.6 | -48.8 | 
B4 |  | < 0.007 | -64.9 | binds
B5 | 1 | 1.64 | -69.7 | 
B6 | 1 | 0.08 | -75.6 | 
B7 | 1 | 0.56 | -70.3 | 
B8 | 1 | 0.07 | -65.4 | 
